Here are results for three molecules from article PMC13324253 (NPJ Vaccines, 2026).

What all share (experiment): ELISA; biotinylated P21 or P29 (2 ug/ml) on streptavidin-coated plates, PfCSP (2 ug/ml) coated on high-binding plates; 100 ul RATPIg supernatant, 1 h at room temperature; peroxidase goat anti-mouse IgG, OD450
Common to all, as to details: one partner purified

The target of test [1] is T1, junctional peptide P21 (NPDPNANPNVDPNAN) (Plasmodium falciparum, also: biotin, end not given here).
T1 construct: junctional 15-mer peptide of PfCSP; Biotinylated, held on streptavidin-coated plates in the ELISA; Probably a synthetic peptide (surmise); also called peptide 21
T1 chain: NPDPNANPNVDPNAN

For test [2], the target named is T2, major repeat peptide P29 (NANPNANPNANPNAN) (Plasmodium falciparum, also: biotin, end not given here).
T2 construct: major repeat 15-mer peptide of PfCSP; Biotinylated, held on streptavidin-coated plates in the ELISA; Probably a synthetic peptide (surmise)
T2 chain: NANPNANPNANPNAN

Test [3] has as its target T3, Plasmodium falciparum circumsporozoite protein (PfCSP), full-length (Plasmodium falciparum, 3D7 (strain not …, UniProt Q7K740)).
T3 construct: Plasmodium falciparum circumsporozoite protein, called full-length; recombinant 'full-length' PfCSP may lack the signal peptide and the GPI anchor signal (surmise); also called flCSP

Where no end group is shown, it is not given here.

T3 sequence (Q7K740 19-374): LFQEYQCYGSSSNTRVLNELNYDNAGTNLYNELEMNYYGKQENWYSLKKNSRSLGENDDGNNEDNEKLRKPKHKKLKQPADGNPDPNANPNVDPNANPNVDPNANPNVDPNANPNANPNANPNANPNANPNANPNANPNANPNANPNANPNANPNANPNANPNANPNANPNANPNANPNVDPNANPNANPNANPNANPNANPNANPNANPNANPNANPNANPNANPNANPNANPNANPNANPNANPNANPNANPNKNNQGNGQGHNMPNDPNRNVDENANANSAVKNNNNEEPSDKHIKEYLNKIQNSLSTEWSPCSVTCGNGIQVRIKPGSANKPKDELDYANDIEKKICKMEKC

B1: P21/P29 double binder of mouse 5147 (PADRE-LuS-3T-immunized mouse) (antibody, V domains shown)
VH: DVQLQESGPGLVKPSQSLSLTCSVTGYSITSGYYWNWIRQFPGNKLEWMGYISYDGSNNYNPSLKNRISITRDTSKNQFFLKLNSVTTEDTATYYCARDDYDGFDYWGQGTTLTVSS
VL: DIQMTQSPSSLSASLGGKVTITCKASQDINKYIAWYQHKPGKGPRLLIHYTSTLQPGIPSRFSGSGSGRDYSFSISNLEPEDIATYYCLQYDNLWTFGGGTKLEIK
notes: Expressed IgG from a single sorted B cell; source: Expi293, transfected with RATP-Ig cassettes, in culture supernatant
On to B1, for which the binding result in test [1] and in test [2] was “binds” throughout.

B2: one strong PfCSP-binding antibody of R21-immunized mouse 5116 (antibody, V domains shown)
VH: QIQLLQSGPELVKPGASVRISCKASGYTLTDHYINWVKQRPGQGLEWIGWIYPGSAEIKFNEKFKGKASLTVDTSSSTAYMQLSSLTSEDSAVYFCARSGYGGLDYWGQGSTLTVSS
VL: DLGMTQSHKFMSTSVGDRVTITCKASQDVGTAVAWYQQKPGQSPKLLIYWASTRHTGVPDRFTGSGSGTDFTLTITNVQSEDLADYFCQQFTIYPWTFGGGTKLEIK
notes: as for B1
Consider B2, for which the binding result in test [3] is given as “binds”.

B3: one strong P29-binding antibody of R21-immunized mouse 5116 (antibody, V domains shown)
VH: QVQLQQSGAELARPGASVKLSCKASGYTFTSYAISWVKQRTGQGLEWIGEIYPRSGNIYYNEKFKGKATLTADKSSSTAYMELRSLTSEDSAVYFCARRGDVYFGGYWGQGTTLTVSS
VL: DIVMTQSHKFMSTSVGDRVIITCKASQDVGTAVVWYQQKPGQSPKLLIYWASTRHTGVPDRFTGSGSGTDFTLTISNVQSEDLADYFCQQYNSYPLTFGAGTKLELK
notes: as for B1
For B3, the binding result in test [2] was “binds”.
